The values that follow come from PMC12290059.

The target of the experiment is recombinant SARS-CoV-2^RBD (biotinylated, AVI-tagged) (SARS-CoV-2) (UniProt P0DTC2). The experiment in a line: BLI.

What is called Kd is the constant that tells how readily two partners part at equilibrium.

In the case of “N. vison ACE2 used in biolayer interferometry (domain or fragment)”, the Kd was 1.5 nM.
